Columns and labels:
γ-synuclein monomer = γ-synuclein monomer (UniProt O76070 1-127); test: inhibition ELISA; concentration of γ-synuclein monomer varied against BAN0805 (hu47-IgG4)
Aβ-protofibril = biological target: T1, Aβ-protofibril (UniProt P05067 672-713); test: inhibition ELISA; concentration of Aβ-protofibril varied against BAN0805 (hu47-IgG4)
T1 construct: also called Aβ-protofibrils

[1] = biological target: T2, human α-synuclein protofibril (human, UniProt P37840 1-140); test: SPR, Biacore 8K; PF coated on chip, antibody injected, single cycle kinetics
α-synuclein monomer = α-synuclein monomer (human, UniProt P37840 1-140); test: SPR, Biacore 8K; antibody captured by anti-human antibody, monomer injected, single cycle kinetics
[2] = biological target: T2, human α-synuclein protofibril; test: SPR, Biacore 8K; ratio of KD values
[3] = biological target: T2, human α-synuclein protofibril; test: inhibition ELISA; protofibril concentration as monomer equivalents
β-synuclein monomer = β-synuclein monomer (UniProt Q16143 1-134); test: inhibition ELISA; concentration of β-synuclein monomer varied against BAN0805 (hu47-IgG4)
[4] = biological target: T2, human α-synuclein protofibril; test: inhibition ELISA

β-synuclein monomer, sequence (Q16143 whole entry): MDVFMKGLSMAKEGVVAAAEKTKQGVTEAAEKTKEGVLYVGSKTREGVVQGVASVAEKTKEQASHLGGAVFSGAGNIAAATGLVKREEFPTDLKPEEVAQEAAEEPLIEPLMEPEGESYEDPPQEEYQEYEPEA
γ-synuclein monomer, sequence (O76070 whole entry): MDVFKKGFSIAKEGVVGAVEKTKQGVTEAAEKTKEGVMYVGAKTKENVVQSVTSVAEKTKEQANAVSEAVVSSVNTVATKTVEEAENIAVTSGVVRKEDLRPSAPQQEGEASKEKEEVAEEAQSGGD

B1: BAN0805 (antibody, human IgG4 S228P, kappa, V domains shown)
VH: QVQLQESGPGLVKPSETLSLTCTVSGFSLTSYGVHWIRQPPGKGLEWIGVIWRGGSTDYSAAFMSRLTISKDTSKNQVSLKLSSVTAADTAVYYCAKLLRSVGGFADWGQGTMVTVSS
VL: DIVMTQSPLSLPVTPGEPASISCRSSQTIVHNNGNTYLEWYLQKPGQSPQLLIYKVSNRFSGVPDRFSGSGSGTDFTLKISRVEAEDVGVYYCFQGSHVPFTFGQGTKLEIKR
notes: Humanized variant of mAb47, human IgG4 (pXC-IgG4Pro(deltaK)) / kappa; also called hu47-IgG4
**Q.** Does B1 bind (γ-synuclein monomer)?
**A.** no binding (tested: last point just above the 10000 nM tick)

**Q.** Does B1 bind (Aβ-protofibril)?
**A.** no binding

**Q.** What about the Kd [1] of the same binder?
**A.** 0.0185 nM

**Q.** What about the Kd (α-synuclein monomer) of the same binder?
**A.** 2190 nM

**Q.** And the “selectivity PF vs. monomeric α-synuclein (fold)” value [2]?
**A.** 110000 fold

**Q.** What about the IC50 [3] of the same binder?
**A.** 2.2 nM

**Q.** Does B1 bind (β-synuclein monomer)?
**A.** no binding (tested: last point just above the 10000 nM tick)

**Q.** What about the “selectivity for α-synuclein protofibril versus monomer (IC50 monomer / IC50 PF)” value [4] of the same binder?
**A.** 910 fold

From patent publication US20210403542A1 (BIOARCTIC, published 2021)
